According to ChEMBL document CHEMBL2073963, “Transport of methotrexate (MTX) and folates by multidrug resistance protein (MRP) 3 and MRP1: effect of polyglutamylation on MTX transport” (Cancer Res, 2001):

Experiments:
Type in all cases: functional, cell membranes
[1] = substrate: Nc1nc(=O)c2nc(CNc3ccc(C(=O)N[C@@H](CCC(=O)O)C(=O)O)cc3)cnc2[nH]1; assay: (§1) TP_TRANSPORTER: uptake in membrane vesicles from MRP3-expressing HEK293 cells; conditions: Membrane vesicle
[2] = substrate: Nc1nc(=O)c2c([nH]1)NCC(CNc1ccc(C(=O)N[C@@H](CCC(=O)O)C(=O)O)cc1)N2C=O; assay: as §1; conditions: Membrane vesicle
[3] = substrate: CN(Cc1cnc2nc(N)nc(N)c2n1)c1ccc(C(=O)N[C@@H](CCC(=O)O)C(=O)O)cc1; assay: as §1; conditions: Membrane vesicle
[4] = substrate: CN(Cc1cnc2nc(N)nc(N)c2n1)c1ccc(C(=O)N[C@@H](CCC(=O)O)C(=O)O)cc1; assay: TP_TRANSPORTER: uptake in membrane vesicle from MRP1-expressing NIH3T3 cells

B1: Multidrug resistance associated protein (Homo sapiens), Q96QA9 (protein)
chain: MDALCGSGELGSKFWDSNLSVHTENPDLTPCFQNSLLAWVPCIYLWVALPCYLLYLRHHCRGYIILSHLSKLKMVLGVLLWCVSWADLFYSFHGLVHGRAPAPVFFVTPLVVGVTMLLATLLIQYERLQGVQSSGVLIIFWFLCVVCAIVPFRSKILLAKAEGEISDPFRFTTFYIHFALVLSALILACFREKPPFFSAKNVDPNPYPETSAGFLSRLFFWWFTKMAIYGYRHPLEEKDLWSLKEEDRSQMVVQQLLEAWRKQEKQTARHKASAAPGKNASGEDEVLLGARPRPRKPSFLKALLATFGSSFLISACFKLIQDLLSFINPQLLSILIRFISNPMAPSWWGFLVAGLMFLCSMMQSLILQHYYHYIFVTGVKFRTGIMGVIYRKALVITNSVKRASTVGEIVNLMSVDAQRFMDLAPFLNLLWSAPLQIILAIYFLWQNLGPSVLAGVAFMVLLIPLNGAVAVKMRAFQVKQMKLKDSRIKLMSEILNGIKVLKLYAWEPSFLKQVEGIRQGELQLLRTAAYLHTTTTFTWMCSPFLVTLITLWVYVYVDPNNVLDAEKAFVSVSLFNILRLPLNMLPQLISNLTQASVSLKRIQQFLSQEELDPQSVERKTISPGYAITIHSGTFTWAQDLPPTLHSLDIQVPKGALVAVVGPVGCGKSSLVSALLGEMEKLEGKVHMKGSVAYVPQQAWIQNCTLQENVLFGKALNPKRYQQTLEACALLADLEMLPGGDQTEIGEKGINLSGGQRQRVSLARAVYSDADIFLLDDPLSAVDSHVAKHIFDHVIGPEGVLAGKTRVLVTHGISFLPQTDFIIVLADGQVSEMGPYPALLQRNGSFANFLCNYAPDEDQGHLEDSWTALEGAEDKEALLIEDTLSNHTDLTDNDPVTYVVQKQFMRQLSALSSDGEGQGRPVPRRHLGPSEKVQVTEAKADGALTQEEKAAIGTVELSVFWDYAKAVGLCTTLAICLLYVGQSAAAIGANVWLSAWTNDAMADSRQNNTSLRLGVYAALGILQGFLVMLAAMAMAAGGIQAARVLHQALLHNKIRSPQSFFDTTPSGRILNCFSKDIYVVDEVLAPVILMLLNSFFNAISTLVVIMASTPLFTVVILPLAVLYTLVQRFYAATSRQLKRLESVSRSPIYSHFSETVTGASVIRAYNRSRDFEIISDTKVDANQRSCYPYIISNRWLSIGVEFVGNCVVLFAALFAVIGRSSLNPGLVGLSVSYSLQVTFALNWMIRMMSDLESNIVAVERVKEYSKTETEAPWVVEGSRPPEGWPPRGEVEFRNYSVRYRPGLDLVLRDLSLHVHGGEKVGIVGRTGAGKSSMTLCLFRILEAAKGEIRIDGLNVADIGDPILFSGTLRMNLDPFGSYSEEDIWWALELSHLHTFVSSQPAGLDFQCSEGGENLSVGQRQLVCLARALLRKSRILVLDEATAAIDLETDNLIQATIRTQFDTCTVLTIAHRLNTIMDYTRVLVLDKGVVAEFDSPANLIAARGIFYGMARDAGLA
Km [1]: 1960 µM | Km [2]: 1740 µM | Km [3]: 620 µM

B2: Multidrug resistance-associated protein 1 (Homo sapiens) (protein)
chain: MALRGFCSADGSDPLWDWNVTWNTSNPDFTKCFQNTVLVWVPCFYLWACFPFYFLYLSRHDRGYIQMTPLNKTKTALGFLLWIVCWADLFYSFWERSRGIFLAPVFLVSPTLLGITMLLATFLIQLERRKGVQSSGIMLTFWLVALVCALAILRSKIMTALKEDAQVDLFRDITFYVYFSLLLIQLVLSCFSDRSPLFSETIHDPNPCPESSASFLSRITFWWITGLIVRGYRQPLEGSDLWSLNKEDTSEQVVPVLVKNWKKECAKTRKQPVKVVYSSKDPAQPKESSKVDANEEVEALIVKSPQKEWNPSLFKVLYKTFGPYFLMSFFFKAIHDLMMFSGPQILKLLIKFVNDTKAPDWQGYFYTVLLFVTACLQTLVLHQYFHICFVSGMRIKTAVIGAVYRKALVITNSARKSSTVGEIVNLMSVDAQRFMDLATYINMIWSAPLQVILALYLLWLNLGPSVLAGVAVMVLMVPVNAVMAMKTKTYQVAHMKSKDNRIKLMNEILNGIKVLKLYAWELAFKDKVLAIRQEELKVLKKSAYLSAVGTFTWVCTPFLVALCTFAVYVTIDENNILDAQTAFVSLALFNILRFPLNILPMVISSIVQASVSLKRLRIFLSHEELEPDSIERRPVKDGGGTNSITVRNATFTWARSDPPTLNGITFSIPEGALVAVVGQVGCGKSSLLSALLAEMDKVEGHVAIKGSVAYVPQQAWIQNDSLRENILFGCQLEEPYYRSVIQACALLPDLEILPSGDRTEIGEKGVNLSGGQKQRVSLARAVYSNADIYLFDDPLSAVDAHVGKHIFENVIGPKGMLKNKTRILVTHSMSYLPQVDVIIVMSGGKISEMGSYQELLARDGAFAEFLRTYASTEQEQDAEENGVTGVSGPGKEAKQMENGMLVTDSAGKQLQRQLSSSSSYSGDISRHHNSTAELQKAEAKKEETWKLMEADKAQTGQVKLSVYWDYMKAIGLFISFLSIFLFMCNHVSALASNYWLSLWTDDPIVNGTQEHTKVRLSVYGALGISQGIAVFGYSMAVSIGGILASRCLHVDLLHSILRSPMSFFERTPSGNLVNRFSKELDTVDSMIPEVIKMFMGSLFNVIGACIVILLATPIAAIIIPPLGLIYFFVQRFYVASSRQLKRLESVSRSPVYSHFNETLLGVSVIRAFEEQERFIHQSDLKVDENQKAYYPSIVANRWLAVRLECVGNCIVLFAALFAVISRHSLSAGLVGLSVSYSLQVTTYLNWLVRMSSEMETNIVAVERLKEYSETEKEAPWQIQETAPPSSWPQVGRVEFRNYCLRYREDLDFVLRHINVTINGGEKVGIVGRTGAGKSSLTLGLFRINESAEGEIIIDGINIAKIGLHDLRFKITIIPQDPVLFSGSLRMNLDPFSQYSDEEVWTSLELAHLKDFVSALPDKLDHECAEGGENLSVGQRQLVCLARALLRKTKILVLDEATAAVDLETDDLIQSTIRTQFEDCTVLTIAHRLNTIMDYTRVIVLDKGEIQEYGAPSDLLQQRGLFYSMAKDAGLV
Km [4]: 2150 µM
